Results: patent US20170218066A1 (SORRENTO THERAPEUTICS, published 2017)

What follows are binders tested against T1, human PD-L1 (human, UniProt Q9NZQ7 19-238, limits assumed) (assay: Biacore (SPR)).
T1 construct: also called Programmed death ligand 1; B7-H1
T1 sequence (Q9NZQ7 19-238 limits assumed): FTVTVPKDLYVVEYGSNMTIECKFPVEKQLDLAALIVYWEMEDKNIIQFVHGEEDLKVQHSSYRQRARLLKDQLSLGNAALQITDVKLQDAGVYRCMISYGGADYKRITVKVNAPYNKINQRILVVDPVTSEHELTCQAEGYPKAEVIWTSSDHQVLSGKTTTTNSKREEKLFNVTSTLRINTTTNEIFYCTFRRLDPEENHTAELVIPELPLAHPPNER

Ka [M⁻¹] | Kd [nM] | koff [s⁻¹] | kon [M⁻¹ s⁻¹] | Binder
5.48e+08 | 1.82 | 0.00287 | 1.57e+06 | H6B1L-EV (antibody, V domains shown, Fully human antibody of an IgG class, light chain variant of H6B1L) VH: QMQLVQSGAEVKKPGSSVKVSCKASGGTFSSYAYSWVRQAPGQGLEWMGGIIPSFGTANYAQKFQGRVTITADESTSTAYMELSSLRSEDTAVYYCARGPIVATITPLDYWGQGTLVTVSS VL: SYVLMQPPSVSVAPGKTATIACGGENIGRKTVHWYQQKPGQAPVLVIYYDSDRPSGIPERFSGSNSGNTATLTISRVEAGDEADYYCLVWDSSSDHRIFGGGTKLTVL
5.4e+08 | 1.85 | 0.0028 | 1.51e+06 | H6B1L (antibody, V domains shown, Fully human antibody of an IgG class; also called parent antibody H6B1L; wild type antibody H6B1L) VH: QMQLVQSGAEVKKPGSSVKVSCKASGGTFSSYAYSWVRQAPGQGLEWMGGIIPSFGTANYAQKFQGRVTITADESTSTAYMELSSLRSEDTAVYYCARGPIVATITPLDYWGQGTLVTVSS VL: SYELMQPPSVSVAPGKTATIACGGENIGRKTVHWYQQKPGQAPVLVIYYDSDRPSGIPERFSGSNSGNTATLTISRVEAGDEADYYCLVWDSSSDHRIFGGGTKLTVL
6.44e+08 | 1.55 | 0.00214 | 1.38e+06 | H6B1L-EM (antibody, V domains shown, Fully human antibody of an IgG class, light chain variant of H6B1L) VH: QMQLVQSGAEVKKPGSSVKVSCKASGGTFSSYAYSWVRQAPGQGLEWMGGIIPSFGTANYAQKFQGRVTITADESTSTAYMELSSLRSEDTAVYYCARGPIVATITPLDYWGQGTLVTVSS VL: SYVLTQPPSVSVAPGKTATIACGGENIGRKTVHWYQQKPGQAPVLVIYYDSDRPSGIPERFSGSNSGNTATLTISRVEAGDEADYYCLVWDSSSDHRIFGGGTKLTVL
